Test results published in article PMC10063552, “Utilizing genetic code expansion to modify N-TIMP2 specificity towards MMP-2, MMP-9, and MMP-14” (Scientific Reports, 2023).

How the values were obtained:
Assay in all cases: enzyme inhibition assay (cleavage of a chromogenic substrate, fit to Morrison's tight binding equation); MMP-2ACT (0.6 nM), MMP-9CAT (3 nM) or MMP-14CAT (1 nM) incubated with 0-25 nM N-TIMP2 variant in 50 mM HEPES, 10 mM CaCl2, 0.05% Brij-35, 1 mM DTNB, pH 7.5, 1 h at 37 °C; then 100 µM chromogenic substrate, absorbance at 412 nm at 37 °C; Ki from three independent experiments
Details in all cases: both partners purified
[1] = biological target: T1, activated MMP-2 (MMP-2ACT) (human, APMA-activated in vitro (propeptide 30-109 removed); catalytic Zn2+, structural Zn2+ and Ca2+ ions. Limits are not printed: full-length active chain taken from the UniProt feature. The tables label it)
T1 chain: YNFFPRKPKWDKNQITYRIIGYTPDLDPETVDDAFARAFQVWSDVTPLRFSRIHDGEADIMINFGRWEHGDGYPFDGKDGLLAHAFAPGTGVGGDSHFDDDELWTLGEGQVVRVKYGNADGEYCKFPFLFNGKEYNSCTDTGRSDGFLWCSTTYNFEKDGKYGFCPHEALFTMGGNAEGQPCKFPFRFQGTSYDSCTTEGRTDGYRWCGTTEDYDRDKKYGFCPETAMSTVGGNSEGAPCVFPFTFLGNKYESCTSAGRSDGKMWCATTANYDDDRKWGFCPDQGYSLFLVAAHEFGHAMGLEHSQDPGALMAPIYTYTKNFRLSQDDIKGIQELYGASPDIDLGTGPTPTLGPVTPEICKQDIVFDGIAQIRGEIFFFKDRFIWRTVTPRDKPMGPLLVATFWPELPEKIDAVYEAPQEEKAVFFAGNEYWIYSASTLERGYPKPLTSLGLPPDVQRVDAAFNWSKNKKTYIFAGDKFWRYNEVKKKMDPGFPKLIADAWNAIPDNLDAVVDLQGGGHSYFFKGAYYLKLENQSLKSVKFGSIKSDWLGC

[2] = biological target: T2, human MMP-9 catalytic domain (MMP-9CAT) (human, UniProt P14780 107-215; P14780 391-443)
T2 construct: Matrix metalloproteinase-9 (MMP-9), human, catalytic domain, first stretch, residues 107-215; Matrix metalloproteinase-9 (MMP-9), human, catalytic domain, second stretch, residues 391-443 (residues 216-390 left out); no linker between the two stretches is stated
T2 chain (looked up): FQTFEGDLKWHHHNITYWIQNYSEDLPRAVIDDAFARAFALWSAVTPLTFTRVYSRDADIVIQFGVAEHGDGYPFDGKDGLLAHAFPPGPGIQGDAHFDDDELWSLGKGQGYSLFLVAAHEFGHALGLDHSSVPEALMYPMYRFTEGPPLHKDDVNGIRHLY

[3] = biological target: T3, human MMP-14 catalytic domain (MMP-14CAT) (human, UniProt P50281 112-292)
T3 construct: Matrix metalloproteinase-14 (MMP-14), human, catalytic domain, residues 112-292

Ki [1]: 233 pM | Ki [2]: 322 pM | Ki [3]: 711 pM
B1: N-terminal domain of TIMP2 (N-TIMP2), wild type (domain or fragment, human, UniProt P16035 27-153, looked up)
chain: CSCSPVHPQQAFCNADVVIRAKAVSEKEVDSGNDIYGNPIKRIQYEIKQIKMFKGPEKDIEFIYTAPSSAVCGVSLDVGGKKEYLIAGKAEGDGKMHITLCDFIVPWDTLSTTQKKSLNHRYQMGCE
notes: numbers count on: the mature protein (Cys1 is the N-terminal residue); Cloned into the pMECS vector; also called wild-type N-TIMP2; parental N-TIMP2; source: E. coli WK6, periplasmic extract, purified (Ni-NTA)
